Assay results published in FireProtDB (doi:10.1021/bi00021a022).

Conditions: Saccharomyces cerevisiae (strain ATCC 204508 / S288c), reversible: yes
[1] = pH 4.6, 27 °C, Thermal, DSC, Potassium acetate 50 mM, structure 1YCC
[2] = pH 4.6, Thermal, DSC, Potassium acetate 50 mM, structure 1YCC
[3] = pH 7, 22 °C, GdnHCl, Fluorescence, Potassium phosphate 0.1 M, structure 1YCC
[4] = pH 3.5, 27 °C, Thermal, DSC, Potassium acetate 50 mM, structure 1YCC
[5] = pH 3.5, Thermal, DSC, Potassium acetate 50 mM, structure 1YCC
[6] = pH 4, 27 °C, Thermal, DSC, Potassium acetate 50 mM, structure 1YCC
[7] = pH 5, 27 °C, Thermal, DSC, Potassium acetate 50 mM, structure 1YCC
[8] = pH 5, Thermal, DSC, Potassium acetate 50 mM, structure 1YCC
[9] = pH 4, Thermal, DSC, Potassium acetate 50 mM, structure 1YCC
[10] = pH 3.5, Thermal, DSC, Potassium acetate 50 mM
[11] = pH 4, Thermal, DSC, Potassium acetate 50 mM
[12] = pH 4.6, Thermal, DSC, Potassium acetate 50 mM
[13] = pH 5, Thermal, DSC, Potassium acetate 50 mM
[14] = pH 7, 22 °C, GdnHCl, Fluorescence, Potassium phosphate 0.1 M

Cytochrome c isoform 1 N58I, P00044, sequence (P00044 whole entry N58I, canonical isoform): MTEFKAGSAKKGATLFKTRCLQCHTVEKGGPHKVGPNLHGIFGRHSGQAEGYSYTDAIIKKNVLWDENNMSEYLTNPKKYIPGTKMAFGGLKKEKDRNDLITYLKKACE
Cytochrome c isoform 1 N58M, P00044, sequence (P00044 whole entry N58M, canonical isoform): as the sequence (P00044 whole entry N58I, canonical isoform) above, with I58M counted along it
Cytochrome c isoform 1 N58Q, P00044, sequence (P00044 whole entry N58Q, canonical isoform): as the sequence (P00044 whole entry N58I, canonical isoform) above, with I58Q counted along it
Cytochrome c isoform 1 N58V, P00044, sequence (P00044 whole entry N58V, canonical isoform): as the sequence (P00044 whole entry N58I, canonical isoform) above, with I58V counted along it
Cytochrome c isoform 1 N58S, P00044, sequence (P00044 whole entry N58S, canonical isoform): as the sequence (P00044 whole entry N58I, canonical isoform) above, with I58S counted along it
Cytochrome c isoform 1 N58T, P00044, sequence (P00044 whole entry N58T, canonical isoform): as the sequence (P00044 whole entry N58I, canonical isoform) above, with I58T counted along it
Cytochrome c isoform 1 N58H, P00044, sequence (P00044 whole entry N58H, canonical isoform): as the sequence (P00044 whole entry N58I, canonical isoform) above, with I58H counted along it
Cytochrome c isoform 1 wild type, P00044, sequence (P00044 whole entry, canonical isoform): as the sequence (P00044 whole entry N58I, canonical isoform) above, with I58N counted along it
Cytochrome c isoform 1 N58A, P00044, sequence (P00044 whole entry N58A, canonical isoform): as the sequence (P00044 whole entry N58I, canonical isoform) above, with I58A counted along it

Row | Substance | ddG of mutation (higher = less stable) [1] | unfolding free energy [1] | Tm [2] | change of melting temperature, mutant - wild type (higher = more stable) [2] | unfolding enthalpy (calorimetric) [2] | ddG of mutation (higher = less stable) [3] | denaturant midpoint (higher = more stable) [3] | unfolding free energy [3] | ddG of mutation (higher = less stable) [6] | unfolding free energy [6] | ddG of mutation (higher = less stable) [7] | unfolding free energy [7] | Tm [8] | change of melting temperature, mutant - wild type (higher = more stable) [8] | unfolding enthalpy (calorimetric) [8] | Tm [9] | change of melting temperature, mutant - wild type (higher = more stable) [9] | unfolding enthalpy (calorimetric) [9] | further results
1 | Cytochrome c isoform 1 N58A, P00044 | -0.63 kcal/mol | 4.66 kcal/mol | 53.7 °C | 4.5 °C | 84 kcal/mol | -2.97 kcal/mol | 1.52 M | 8.83 kcal/mol | – | – | – | – | – | – | – | – | – | – | –
2 | Cytochrome c isoform 1 N58H, P00044 | 1.27 kcal/mol | 2.76 kcal/mol | 47.5 °C | -1.7 °C | 64.1 kcal/mol | 1.7 kcal/mol | 1.41 M | 4.16 kcal/mol | – | – | – | – | – | – | – | – | – | – | –
3 | Cytochrome c isoform 1 N58I, P00044 | – | – | 62.2 °C | 13 °C | 101 kcal/mol | -4.1 kcal/mol | 2.09 M | 9.96 kcal/mol | -3.03 kcal/mol | 5.55 kcal/mol | -2.02 kcal/mol | 7.64 kcal/mol | 64.2 °C | 0.9 °C | 108 kcal/mol | – | – | – | ddG of mutation (higher = less stable) [4]: -2.62 kcal/mol; unfolding free energy [4]: 4.26 kcal/mol; Tm [5]: 52.4 °C; change of melting temperature, mutant - wild type (higher = more stable) [5]: 12.3 °C; unfolding enthalpy (calorimetric) [5]: 80.7 kcal/mol
4 | Cytochrome c isoform 1 N58L, P00044 | -2.56 kcal/mol | 6.59 kcal/mol | 62.1 °C | 12.9 °C | 97.4 kcal/mol | -4.73 kcal/mol | 2.17 M | 10.6 kcal/mol | – | – | – | – | – | – | – | – | – | – | –
5 | Cytochrome c isoform 1 N58M, P00044 | -2.25 kcal/mol | 6.28 kcal/mol | 62.6 °C | 13.4 °C | 96 kcal/mol | -4.04 kcal/mol | 2.14 M | 9.9 kcal/mol | -2.91 kcal/mol | 5.43 kcal/mol | – | – | – | – | – | 58.9 °C | 13.5 °C | 89 kcal/mol | –
6 | Cytochrome c isoform 1 N58Q, P00044 | – | 3.95 kcal/mol | 51.2 °C | 2 °C | 78.7 kcal/mol | – | 1.39 M | 5.02 kcal/mol | – | – | – | – | – | – | – | – | – | – | –
7 | Cytochrome c isoform 1 N58S, P00044 | 0.05 kcal/mol | 3.98 kcal/mol | 51 °C | 1.8 °C | 78.7 kcal/mol | – | – | – | -0.74 kcal/mol | 3.26 kcal/mol | 1.29 kcal/mol | 4.33 kcal/mol | 52.6 °C | -10.7 °C | 83.2 kcal/mol | 46.7 °C | 1.3 °C | 70.8 kcal/mol | –
8 | Cytochrome c isoform 1 N58T, P00044 | -0.59 kcal/mol | 4.62 kcal/mol | 54.5 °C | 5.3 °C | 82.9 kcal/mol | -1.9 kcal/mol | 1.58 M | 7.76 kcal/mol | -1.01 kcal/mol | 3.53 kcal/mol | 0.53 kcal/mol | 5.09 kcal/mol | 55.3 °C | -8 °C | 88.6 kcal/mol | 49.2 °C | 3.8 °C | 75.3 kcal/mol | ddG of mutation (higher = less stable) [4]: -0.98 kcal/mol; unfolding free energy [4]: 2.62 kcal/mol; Tm [5]: 45.4 °C; change of melting temperature, mutant - wild type (higher = more stable) [5]: 5.3 °C; unfolding enthalpy (calorimetric) [5]: 63.4 kcal/mol
9 | Cytochrome c isoform 1 N58V, P00044 | -1.67 kcal/mol | 5.7 kcal/mol | 58 °C | 8.8 °C | 92.4 kcal/mol | -2.02 kcal/mol | 1.77 M | 7.88 kcal/mol | -2.44 kcal/mol | 4.96 kcal/mol | – | – | – | – | – | 54.3 °C | 8.9 °C | 86.5 kcal/mol | –
10 | Cytochrome c isoform 1 wild type, P00044 | – | – | – | – | – | – | – | – | – | – | – | – | – | – | – | – | – | – | unfolding free energy (pH 3.5, 27 °C, Thermal, DSC, Potassium acetate 50 mM): 1.64 kcal/mol; Tm [10]: 40.1 °C; unfolding enthalpy (calorimetric) [10]: 55.3 kcal/mol; unfolding free energy (pH 4, 27 °C, Thermal, DSC, Potassium acetate 50 mM): 2.52 kcal/mol; Tm [11]: 45.4 °C; unfolding enthalpy (calorimetric) [11]: 64.2 kcal/mol; unfolding free energy (pH 4.6, 27 °C, Thermal, DSC, Potassium acetate 50 mM): 4.03 kcal/mol; Tm [12]: 49.2 °C; unfolding enthalpy (calorimetric) [12]: 78.8 kcal/mol; unfolding free energy (pH 5, 27 °C, Thermal, DSC, Potassium acetate 50 mM): 5.62 kcal/mol; Tm [13]: 63.3 °C; unfolding enthalpy (calorimetric) [13]: 107 kcal/mol; denaturant midpoint (higher = more stable) [14]: 1.34 M; unfolding free energy [14]: 5.86 kcal/mol
